Patent publication US20250326841A1

Columns and labels:
[1] = target: mouse TIM-3, membrane bound (mouse) (UniProt Q8VIM0); experiment: binding to activated mouse T cells; method not described
[2] = target: mouse TIM-3, membrane bound (mouse) (UniProt Q8VIM0); experiment: binding to activated mouse T cells, compared with TIM3.18 binding to human TIM-3; method not described

mouse TIM-3, membrane bound (mouse), sequence (Q8VIM0 20-281): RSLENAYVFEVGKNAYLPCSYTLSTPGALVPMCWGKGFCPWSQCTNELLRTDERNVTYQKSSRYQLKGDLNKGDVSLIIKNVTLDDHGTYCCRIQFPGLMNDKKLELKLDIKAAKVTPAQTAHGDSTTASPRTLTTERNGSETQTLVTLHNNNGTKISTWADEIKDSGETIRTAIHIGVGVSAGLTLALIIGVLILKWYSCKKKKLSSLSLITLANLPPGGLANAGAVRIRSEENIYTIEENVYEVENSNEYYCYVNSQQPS

RMT3-23, rat anti-mouse TIM-3 antibody (Bio-X-Cell)
EC50 [1]: 1.7 nM
fold weaker EC50 than TIM3.18 on human TIM-3 [2]: 17 fold
